Results on two proteins are retold here after US20080108569.

For the data set, the target named is 6His-tagged human Akt1, P31749.
6His-tagged human Akt1, P31749, sequence (P31749 whole entry, looked up): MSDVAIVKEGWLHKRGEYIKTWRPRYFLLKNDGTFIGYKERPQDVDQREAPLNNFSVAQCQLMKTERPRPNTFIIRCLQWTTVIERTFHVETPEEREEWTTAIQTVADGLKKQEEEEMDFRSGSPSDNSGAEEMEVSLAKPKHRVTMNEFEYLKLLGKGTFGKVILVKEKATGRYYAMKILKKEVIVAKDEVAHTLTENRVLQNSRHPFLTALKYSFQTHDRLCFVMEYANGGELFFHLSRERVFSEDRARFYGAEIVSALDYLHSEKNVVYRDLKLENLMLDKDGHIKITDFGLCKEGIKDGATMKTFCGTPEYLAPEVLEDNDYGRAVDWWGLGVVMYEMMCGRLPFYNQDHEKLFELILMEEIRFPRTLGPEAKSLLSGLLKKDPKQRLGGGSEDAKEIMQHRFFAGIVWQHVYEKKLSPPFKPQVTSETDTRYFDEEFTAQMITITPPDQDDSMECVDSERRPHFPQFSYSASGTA

B1: GST-tagged PP2C domain of PHLPP2 (protein)
chain: TSTFWSHGLAEMAGQRNKLCVSALAMDSFAEGVGAVYGMFDGDRNEELPRLLQCTMADVLLEEVQQSTNDTVFMANTFLVSHRKLGMAGQKLGSSALLCYIRPDTADPASSFSLTVANVGTCQAVLCRGGKPVPLSKVFSLEQDPEEAQRVKDQKAIITEDNKVNGVTCCTRMLGCTYLYPWILPKPHISSTPLTIQDELLILGNKALWEHLSYTEAVNAVRHVQDPLAAAKKLCTLAQSYGCQDNVGAMV
On to B1, for which the “dephosphorylation of Ser 473 in 5 minutes (phospho-specific antibody)” value is listed as 82+6% (Ser 473) and the “dephosphorylation of Thr 308 in 5 minutes (phospho-specific antibody)” value is recorded as 70+2% (Thr 308).

B2: HA-tagged full length PHLPP2 (protein)
chain: MGYPYDVPDYAMKRNGSRNCLNRRSRFGSRERDWLREDVKRGCVYLYGADTTTATTTTTTSSSSSSSSSSSDLHLVLCTVETPASEICAGEGRESLYLQLHGDLVRRLEPTERPLQIVYDYLSRLGFDDPVRIQEEATNPDLGCMIRFYGEKPCHMDRLDRILLSGIYNVRKGKTQLHKWAERLVVLCGTCLIVSSVKDCQTGKMHILPLVGGKIEEVKRRQYSLAFSSAGAQAQTYHVSFETLAEYQRWQRQASKVVSQRISTVDLSCYSLEEVPEHLFYSQDITYLNLRHNFMQLERPGGLDTLYKFSQLKGLNLSHNKLGLFPILLCEISTLTELNLSCNGFHDLPSQIGNLLNLQTLCLDGNFLTTLPEELGNLQQLSSLGISFNNFSQIPEVYEKLTMLDRVVMAGNCLEVLNLGVLNRMNHIKHVDLRMNHLKTMVIENLEGNKHITHVDLRDNRLTDLDLSSLCSLEQLHCGRNQLRELTLSGFSLRTLYASSNRLTAVNVYPVPSLLTFLDLSRNLLECVPDWACEAKKIEVLDVSYNLLTEVPVRILSSLSLRKLMLGHNHVQNLPTLVEHIPLEVLDLQHNALTRLPDTLFSKALNLRYLNASANSLESLPSACTGEESLSMLQLLYLTNNLLTDQCIPVLVGHLHLRILHLANNQLQTFPASKLNKLEQLEELNLSGNKLKTIPTTIANCKRLHTLVAHSNNISIFPEILQLPQIQFVDLSCNDLTEILIPEALPATLQDLDLTGNTNLVLEHKTLDIFSHITTLKIDQKPLPTTDSTVTSTFWSHGLAEMAGQRNKLCVSALAMDSFAEGVGAVYGMFDGDRNEELPRLLQCTMADVLLEEVQQSTNDTVFMANTFLVSHRKLGMAGQKLGSSALLCYIRPDTADPASSFSLTVANVGTCQAVLCRGGKPVPLSKVFSLEQDPEEAQRVKDQKAIITEDNKVNGVTCCTRMLGCTYLYPWILPKPHISSTPLTIQDELLILGNKALWEHLSYTEAVNAVRHVQDPLAAAKKLCTLAQSYGCQDNVGAMVVYLNIGEEGCTCEMNGLTLPGPVGFASTTTIKDAPKPATPSSSSGIASEFSSEMSTSEVSSEVGSTASDEHNAGGLDTALLPRPERRCSLHPTPTSGLFQRQPSSATFSSNQSDNGLDSDDDQPVEGVITNGSKVEVEVDIHCCRGRDLENSPPLIESSPTLCSEEHARGSCFGIRRQNSVNSGMLLPMSKDRMELQKSPSTSCLYGKKLSNGSIVPLEDSLNLIEVATEVPKRKTGYFAAPTQMEPEDQFVVPHDLEEEVKEQMKQHQDSRLEPEPHEEDRTEPPEEFDTAL
As to B2, the “dephosphorylation of Ser 473 by immunoprecipitated enzyme” value is reported as 60+4% dephosphorylation of Ser 473 and the “dephosphorylation of Thr 308 by immunoprecipitated enzyme” value is listed as “no significant effect on Thr 308 phosphorylation”.
